Experimental data taken from patent publication US20200371091A1, “BCMA-TARGETING CHIMERIC ANTIGEN RECEPTOR, AND USES THEREOF” (Novartis AG, priority 2017, published 2020).

Tests used:
[1] = type: in vivo; settings: subject 03; 1.5 g/m2 on day 17 after high-dose steroids without improvement
From the text: This clinical trial was a phase 1 open-label study where the primary objective was safety.
The primary objective was to evaluate the safety of CART-BCMA in patients with relapsed/refractory myeloma. The primary endpoint was incidence of study-related grade 3 or higher AEs, including dose-limiting toxicities (DLTs). A DLT was defined as a serious AND unexpected AE whose relationship to study therapy could not be ruled out, occurring within 4 weeks of receiving protocol therapy.

[2] = target: BCMA (B-cell maturation antigen) on the surface of cell lines (UniProt Q02223); test: flow cytometry on HBL-1 cells; Quantum Simply Cellular quantification kit
[3] = target: BCMA (B-cell maturation antigen) on the surface of cell lines (UniProt Q02223); test: flow cytometry on SuDHL-6 cells; Quantum Simply Cellular quantification kit

Chain of BCMA (B-cell maturation antigen) on the surface of cell lines (Q02223 whole entry): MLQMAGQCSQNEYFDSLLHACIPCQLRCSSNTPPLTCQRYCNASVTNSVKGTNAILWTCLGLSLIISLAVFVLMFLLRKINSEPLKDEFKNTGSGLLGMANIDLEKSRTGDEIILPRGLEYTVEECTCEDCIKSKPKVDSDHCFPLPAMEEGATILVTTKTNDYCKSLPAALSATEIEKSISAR

Row | Compound | time to rapid neurologic improvement of PRES-like grade 4 neurotoxicity [1] [hours] | antibody binding capacity (ABC) [2] | antibody binding capacity (ABC) [3]
1 | O=P1(N(CCCl)CCCl)NCCCO1 (stereo not drawn) [cyclophosphamide] | ≤ 48 |  | 
2 | PE-labeled anti-BCMA antibody (Biolegend, cat #357504) |  | > 5000 | > 5000
